Patent US20200190136A1, “METHODS FOR GENERATING SMALL MOLECULE DEGRADERS AND DIMERIZERS” (DANA-FARBER CANCER INSTITUTE, INC., priority 2017, published 2020)

Legend:
[1] = molecular target: His6-DDB1ΔB-His6-CRBN complex (human) (UniProt Q16531); assay: FP lenalidomide-Atto565 displacement from DDB1ΔB-CRBN, dBET6, with and without BRD4BD2
[2] = molecular target: His6-DDB1ΔB-His6-CRBN complex (human) (UniProt Q16531); assay: FP lenalidomide-Atto565 displacement from DDB1ΔB-CRBN, dBET23, with and without BRD4BD2
[3] = molecular target: His6-DDB1ΔB-His6-CRBN complex (human) (UniProt Q16531); assay: FP lenalidomide-Atto565 displacement from DDB1ΔB-CRBN, dBET57, with and without BRD4BD2

Chain of His6-DDB1ΔB-His6-CRBN complex (human) (Q16531 other isoform, or with tags, fused parts or gaps mutant, chain 1 of 2): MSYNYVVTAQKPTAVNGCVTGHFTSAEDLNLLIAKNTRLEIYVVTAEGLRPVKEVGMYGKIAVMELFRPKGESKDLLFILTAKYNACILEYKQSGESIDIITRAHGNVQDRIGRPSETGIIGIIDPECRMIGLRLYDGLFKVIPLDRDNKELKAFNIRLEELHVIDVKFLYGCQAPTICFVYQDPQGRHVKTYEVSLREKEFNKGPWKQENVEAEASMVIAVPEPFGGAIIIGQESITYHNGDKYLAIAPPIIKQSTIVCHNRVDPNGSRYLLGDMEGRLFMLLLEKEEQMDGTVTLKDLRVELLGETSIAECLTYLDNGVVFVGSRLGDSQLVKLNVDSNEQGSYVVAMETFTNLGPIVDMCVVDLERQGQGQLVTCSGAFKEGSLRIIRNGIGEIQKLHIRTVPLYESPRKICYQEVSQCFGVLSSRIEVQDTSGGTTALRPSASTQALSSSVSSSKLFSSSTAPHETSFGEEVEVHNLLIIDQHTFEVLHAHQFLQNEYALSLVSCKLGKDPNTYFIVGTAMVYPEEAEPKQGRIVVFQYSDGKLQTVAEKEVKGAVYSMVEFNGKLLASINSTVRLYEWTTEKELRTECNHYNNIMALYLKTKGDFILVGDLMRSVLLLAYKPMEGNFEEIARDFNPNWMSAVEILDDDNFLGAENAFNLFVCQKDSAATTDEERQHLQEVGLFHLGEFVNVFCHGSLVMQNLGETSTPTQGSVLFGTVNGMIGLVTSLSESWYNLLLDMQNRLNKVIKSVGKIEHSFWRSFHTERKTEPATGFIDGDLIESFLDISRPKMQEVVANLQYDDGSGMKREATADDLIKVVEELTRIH
Chain of His6-DDB1ΔB-His6-CRBN complex (human) (Q96SW2 whole entry, stated change not applied, chain 2 of 2, further chain): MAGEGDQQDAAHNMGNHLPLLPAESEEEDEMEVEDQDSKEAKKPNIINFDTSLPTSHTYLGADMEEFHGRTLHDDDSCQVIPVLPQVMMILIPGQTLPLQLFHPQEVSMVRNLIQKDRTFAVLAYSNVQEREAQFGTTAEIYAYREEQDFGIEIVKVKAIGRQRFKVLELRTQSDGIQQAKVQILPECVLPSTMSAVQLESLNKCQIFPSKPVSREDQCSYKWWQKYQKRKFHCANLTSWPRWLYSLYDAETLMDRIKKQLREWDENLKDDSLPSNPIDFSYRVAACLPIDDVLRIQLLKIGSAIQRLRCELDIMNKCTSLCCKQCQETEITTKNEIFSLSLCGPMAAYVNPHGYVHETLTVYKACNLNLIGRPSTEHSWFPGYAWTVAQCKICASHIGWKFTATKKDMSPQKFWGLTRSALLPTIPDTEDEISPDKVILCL

BRD4BD2 (second bromodomain of human BRD4) (from UniProt O60885 333-460)
apparent cooperativity factor αapp (IC50[binary]/IC50[ternary]) [1]: 0.2
apparent cooperativity factor αapp (IC50[binary]/IC50[ternary]) [2]: < 0.1
apparent cooperativity factor αapp (IC50[binary]/IC50[ternary]) [3]: < 0.1
